Assay results reported in article PMC11764660, “Self-Assembled Peptide Hydrogels PPI45 and PPI47: Novel Drug Candidates for Staphylococcus aureus Infection Treatment” (Gels, 2025).
Numbering of substitutions follows the chain as printed. In names and notes the source's numbering stands.

B1: PPI42 (peptide)
chain: GFGCNGPWSEDDMKCHNHCKSIKGYKGGYCAKGGFLCKCY
notes: mutant of the fungal defensin plectasin (40 amino acids); numbers count on: the mature protein; Forms fibrils and gels by self-assembly; also called self-assembling variant PPI42; defensin-derived peptide PPI42; source: Pichia pastoris X-33 (pPICZαA), fermentation supernatant, purified by cation exchange chromatography
B2: PPI45 (peptide)
chain: B1 chain with S9N
notes: mutant of the fungal defensin plectasin, derived from PPI42 by S9N; numbers count on: the mature protein; S9N against the parent PPI42; also called PPI45:N9; source: Pichia pastoris X-33 (pPICZαA), fermentation supernatant, purified by cation exchange chromatography
B3: PPI47 (peptide)
chain: B1 chain with M13L, K14R
notes: mutant of the fungal defensin plectasin, derived from PPI42 by 13M14K to 13L14R; numbers count on: the mature protein; M13L and K14R against the parent PPI42; also called PPI47:L13 R14; source: Pichia pastoris X-33 (pPICZαA), fermentation supernatant, purified by cation exchange chromatography

Biological target: the molecule itself
Experiment: transmission electron microscopy; peptide solution at its CMC on a copper grid, stained with phosphotungstic acid; monomers to fibres

Row | Protein | binding result
1 | B1 | binds
2 | B2 | binds
3 | B3 | binds
